Measurements reported in article PMC3685266.
Values belong to the substance of their own block, whether it stands above or below them.

Assays:
[1] = target: preformed SecA_(Δcys)–SecYEG membrane-bound complex (E. coli) (UniProt P10408); experiment: steady-state ATPase activity titration; 80 nM SecA with 1.08 μM SecYEG reconstituted into E. coli polar lipids in TKM buffer, 1 mM ATP, increasing purified proOmpA_(Δcys); no DTT; Kd from a ligand-binding fit
[2] = target: preformed SecA_(D337C/E806C) (released with DTT)–SecYEG membrane-bound complex (E. coli) (UniProt P10408); experiment: steady-state ATPase activity titration; 80 nM SecA with 1.08 μM SecYEG reconstituted into E. coli polar lipids in TKM buffer, 1 mM ATP, increasing purified proOmpA_(Δcys); with 10 mM DTT; Kd from a ligand-binding fit
[3] = target: preformed SecA_(D337C/K482C) (released with DTT)–SecYEG membrane-bound complex (E. coli) (UniProt P10408); experiment: as above
[4] = target: preformed SecA_(Δcys)–SecYEG membrane-bound complex (E. coli) (UniProt P10408); experiment: as above
[5] = target: SecY_(268Fl)EG (E. coli) (UniProt P0AGA2); experiment: other fluorescence titration; fluorescence quench of 5 nM SecY_(268Fl)EG, 1 mM p[NH]ppA, 20 mM Tris/HCl pH 8, 130 mM NaCl, 10% glycerol, 2 mM MgCl2, 0.03% C12E9; SecA titrated 0-1 μM; with 10 mM DTT; one-site fit with linear phase
[6] = target: SecY_(268Fl)EG (E. coli) (UniProt P0AGA2); experiment: other fluorescence titration; fluorescence quench of 5 nM SecY_(268Fl)EG, 1 mM p[NH]ppA, 20 mM Tris/HCl pH 8, 130 mM NaCl, 10% glycerol, 2 mM MgCl2, 0.03% C12E9; SecA titrated 0-1 μM; no DTT; one-site fit with linear phase
[7] = target: SecA_(D337C/E806C), uncross-linked, clamp released from the open state with 10 mM DTT (E. coli) (UniProt P10408); experiment: SEC; Superose 6 10/300 GL, 20 mM Tris/HCl pH 7.5, 100 mM KCl, with or without 10 mM DTT; column calibrated with gel-filtration standards
[8] = target: SecA_(D337C/E806C), cross-linked (clamp open) (E. coli) (UniProt P10408); experiment: steady-state ATPase activity titration; 80 nM SecA in TKM buffer, 1 mM ATP, increasing vesicles reconstituted with purified SecYEG; without proOmpA; no DTT; Kd from a ligand-binding fit
[9] = target: SecA_(D337C/K482C), cross-linked (clamp closed) (E. coli) (UniProt P10408); experiment: as above
[10] = target: SecA_(Δcys) (E. coli) (UniProt P10408); experiment: as above
[11] = target: SecA_(D337C/E806C), cross-linked (clamp open) (E. coli) (UniProt P10408); experiment: steady-state ATPase activity titration; 0.15 μM SecA in TKM buffer (pH 7.5), 1 mM ATP, 0.03% C12E9, 25°C, increasing detergent-solubilised SecYEG; no DTT; apparent Kd from a ligand-binding fit
[12] = target: SecA_(D337C/K482C), cross-linked (clamp closed) (E. coli) (UniProt P10408); experiment: as above
[13] = target: SecA_(Δcys) (E. coli) (UniProt P10408); experiment: as above
[14] = target: SecA_(D337C/E806C), released with 10 mM DTT (E. coli) (UniProt P10408); experiment: steady-state ATPase activity titration; 80 nM SecA in TKM buffer, 1 mM ATP, increasing vesicles reconstituted with purified SecYEG; without proOmpA; with 10 mM DTT; Kd from a ligand-binding fit
[15] = target: SecA_(D337C/K482C), released with 10 mM DTT (E. coli) (UniProt P10408); experiment: as above
[16] = target: SecA_(Δcys) (E. coli) (UniProt P10408); experiment: as above
[17] = target: SecA_(D337C/E806C), released with 10 mM DTT (E. coli) (UniProt P10408); experiment: steady-state ATPase activity titration; 0.15 μM SecA in TKM buffer (pH 7.5), 1 mM ATP, 0.03% C12E9, 25°C, increasing detergent-solubilised SecYEG; with 10 mM DTT; apparent Kd from a ligand-binding fit
[18] = target: SecA_(D337C/K482C), released with 10 mM DTT (E. coli) (UniProt P10408); experiment: as above
[19] = target: SecA_(Δcys) (E. coli) (UniProt P10408); experiment: as above
[20] = target: SecA_(Δcys) (E. coli) (UniProt P10408); experiment: steady-state ATPase activity titration; 0.15 μM SecA in TKM buffer, 1 mM ATP, increasing detergent-solubilised SecYEG, in the presence of 40 μM cardiolipin (CL); no DTT; apparent Kd from a ligand-binding fit
[21] = target: SecA_(D337C/E806C), cross-linked (clamp open) (E. coli) (UniProt P10408); experiment: steady-state ATPase activity titration; 80 nM SecA in TKM buffer, 1 mM ATP, increasing vesicles reconstituted with purified SecYEG; in the presence of 0.6 μM proOmpA_(Δcys); no DTT; Kd from a ligand-binding fit
[22] = target: SecA_(D337C/K482C), cross-linked (clamp closed) (E. coli) (UniProt P10408); experiment: as above
[23] = target: SecA_(Δcys) (E. coli) (UniProt P10408); experiment: as above
[24] = target: SecA_(D337C/E806C), released with 10 mM DTT (E. coli) (UniProt P10408); experiment: steady-state ATPase activity titration; 0.15 μM SecA in TKM buffer, 1 mM ATP, increasing detergent-solubilised SecYEG, in the presence of 40 μM cardiolipin (CL); with 10 mM DTT; apparent Kd from a ligand-binding fit
[25] = target: SecA_(D337C/K482C), released with 10 mM DTT (E. coli) (UniProt P10408); experiment: as above
[26] = target: SecA_(Δcys) (E. coli) (UniProt P10408); experiment: as above
[27] = target: SecA_(D337C/E806C), released with 10 mM DTT (E. coli) (UniProt P10408); experiment: steady-state ATPase activity titration; 80 nM SecA in TKM buffer, 1 mM ATP, increasing vesicles reconstituted with purified SecYEG; in the presence of 0.6 μM proOmpA_(Δcys); with 10 mM DTT; Kd from a ligand-binding fit
[28] = target: SecA_(D337C/K482C), released with 10 mM DTT (E. coli) (UniProt P10408); experiment: as above
[29] = target: SecA_(Δcys) (E. coli) (UniProt P10408); experiment: as above
[30] = target: SecA_(Δcys), SecA without cysteine residues (E. coli) (UniProt P10408); experiment: SEC; Superose 6 10/300 GL, 20 mM Tris/HCl pH 7.5, 100 mM KCl, with or without 10 mM DTT; column calibrated with gel-filtration standards
[31] = target: SecA_(D337C/K482C), uncross-linked, clamp released from the closed state with 10 mM DTT (E. coli) (UniProt P10408); experiment: as above

Kd [1]: 500 nM
Kd [2]: 350 nM
Kd [3]: 240 nM
Kd [4]: 780 nM
Substance: proOmpA_(Δcys) (from UniProt P0A910 22-346) (natural protein)

Kd [5]: 118 nM
Substance: SecA_(D337C/K482C), released with 10 mM DTT (from UniProt P10408 1-901) (enzyme)

Kd [6]: 60.9 nM
Substance: SecA_(D337C/E806C), cross-linked (clamp open) (from UniProt P10408 1-901) (enzyme)

Kd [6]: 28.6 nM
Substance: SecA_(D337C/K482C), cross-linked (clamp closed) (from UniProt P10408 1-901) (enzyme)

stoichiometry N [7]: 2
Substance: SecA_(D337C/E806C), uncross-linked, clamp released from the open state with 10 mM DTT (from UniProt P10408 1-901) (enzyme)

Kd [8]: 650 nM
Kd [9]: 29 nM
Kd [10]: 1130 nM
Kd [11]: 5900 nM
Kd [12]: 15 nM
Kd [13]: 7600 nM
Kd [14]: 650 nM
Kd [15]: 340 nM
Kd [16]: 1110 nM
Kd [17]: 6000 nM
Kd [18]: 6300 nM
Kd [19]: 7800 nM
Kd [20]: 3.7 nM
Kd [21]: 170 nM
Kd [22]: 25 nM
Kd [23]: 260 nM
Kd [24]: 6.5 nM
Kd [25]: 8.8 nM
Kd [26]: 5.6 nM
Kd [27]: 130 nM
Kd [28]: 130 nM
Kd [29]: 190 nM
Substance: SecYEG (from UniProt P0AGA2 1-443; P0AG96 1-127; P0AG99 1-110) (complex)

Kd [5]: 59.5 nM
Substance: SecA_(D337C/E806C), released with 10 mM DTT (from UniProt P10408 1-901) (enzyme)

stoichiometry N [30]: 2
Substance: SecA_(Δcys), SecA without cysteine residues (from UniProt P10408 1-901) (enzyme)

Kd [6]: 18.4 nM
Kd [5]: 20.6 nM
Substance: SecA_(Δcys) (from UniProt P10408 1-901) (enzyme)

stoichiometry N [31]: 2
Substance: SecA_(D337C/K482C), uncross-linked, clamp released from the closed state with 10 mM DTT (from UniProt P10408 1-901) (enzyme)
